Results on twelve molecules are retold here after patent US5726147A, “Human mutant tissue factor compositions useful as tissue factor antagonists” (priority 1995, dated 1998).

Changes are numbered by the printed parent chain.

Sequences and labels used below:
B1: Arg-135: human tissue factor mutant, Arg-135 substituted by Ala (protein, UniProt P13726 33-295, looked up, variant R135A)
Tissue factor: SGTTNTVAAYNLTWKSTNFKTILEWEPKPVNQVYTVQISTKSGDWKSKCFYTTDTECDLTDEIVKDVKQTYLARVFSYPAGNVESTGSAGEPLYENSPEFTPYLETNLGQPTIQSFEQVGTKVNVTVEDERTLVARNNTFLSLRDVFGKDLIYTLYYWKSSSSGKKTAKTNTNEFLIDVDKGENYCFSVQAVIPSRTVNRKSTDSPVECMGQEKGEFREIFYIIGAVVFVVIILVIILAISLHKCRKAGVGQSWKENSPLNVS
B2: Arg-196: human tissue factor mutant, Arg-196 replacement by alanine in the Fc-Gc-loop (protein, UniProt P13726 33-295, looked up, variant R196A)
Tissue factor: B1 Tissue factor with A135R, R196A
B3: Val-64/Tyr-71 to Ala: human tissue factor Val-64/Tyr-71 to Ala double mutant (protein, UniProt P13726 33-295, looked up, variant V64A Y71A)
Tissue factor: B1 Tissue factor with V64A, Y71A, A135R
B4: Asp-58 to Ala: human tissue factor mutant, Asp-58 to Ala exchange (EN-strand) (protein, UniProt P13726 33-295, looked up, variant D58A)
Tissue factor: B1 Tissue factor with D58A, A135R
B5: Phe-140: human tissue factor mutant, Phe-140 substituted by Ala (protein, UniProt P13726 33-295, looked up, variant F140A)
Tissue factor: B1 Tissue factor with A135R, F140A
B6: Ile-22 to Ala: full-length human tissue factor mutant, Ile-22 replaced by alanine (protein, UniProt P13726 1-295, looked up, variant I22A)
chain: METPAWPRVPRPETAVARTLLLGWVFAQVAGASGTTNTVAAYNLTWKSTNFKTALEWEPKPVNQVYTVQISTKSGDWKSKCFYTTDTECDLTDEIVKDVKQTYLARVFSYPAGNVESTGSAGEPLYENSPEFTPYLETNLGQPTIQSFEQVGTKVNVTVEDERTLVRRNNTFLSLRDVFGKDLIYTLYYWKSSSSGKKTAKTNTNEFLIDVDKGENYCFSVQAVIPSRTVNRKSTDSPVECMGQEKGEFREIFYIIGAVVFVVIILVIILAISLHKCRKAGVGQSWKENSPLNVS
modifications: full-length
notes: full-length human tissue factor mutant, Ile-22 replaced by alanine
B7: S16-T17-K20: human tissue factor triple mutant with alanine at positions 16, 17 and 20 (protein, UniProt P13726 33-295, looked up, variant S16A T17A K20A)
Tissue factor: B1 Tissue factor with S16A, T17A, K20A, A135R
B8: K65-D66-K68: human tissue factor triple alanine mutant at positions 65, 66 and 68 (protein, UniProt P13726 33-295, looked up, variant K65A D66A K68A)
Tissue factor: B1 Tissue factor with K65A, D66A, K68A, A135R
B9: Arg-136: human tissue factor mutant, Arg-136 exchanged for alanine (protein, UniProt P13726 33-295, looked up, variant R136A)
Tissue factor: B1 Tissue factor with A135R, R136A
B10: Thr-139/Ser-142: human tissue factor mutant, Thr-139 and Ser-142 exchanged for alanine (protein, UniProt P13726 33-295, looked up, variant T139A S142A)
Tissue factor: B1 Tissue factor with A135R, T139A, S142A
B11: Arg-131: human tissue factor mutant, Arg-131 exchanged for alanine (protein, UniProt P13726 33-295, looked up, variant R131A)
Tissue factor: B1 Tissue factor with R131A, A135R
B12: R44: mhuTF in which arginine is substituted in place of D44 (protein, UniProt P13726 33-295, looked up, variant D44R)
Tissue factor: B1 Tissue factor with D44R, A135R

One data set deals with recombinant VIIa. In words: Linked chromogenic assay with purified VIIa and factor X, apparent dissociation constant of the TF-VIIa interaction. Format: biochemical. As to conditions: full-length Ala mutants, linked chromogenic assay. The method, then: (§1) The lysate was prepared by treating cell pellets with 15 mM octyl-glucopyranoside for 15 minutes at 37 C. followed by a 3-fold dilution. […] Formed TF-VIIa complexes were quantified with substrate factor X added at 100 nM for a fixed time. Samples were then removed from the reaction and quenched in 100 mM EDTA in TBS (20 mM Tris-HCl 140 mM NaCl, pH 7.4). […] The rate of Spectrozyme hydrolysis, measured as the increase in absorbance (mOD/min), was determined at ambient temperature in a kinetic plate reader (Molecular Devices, Mountain View, Calif.) followed by quenching and monitoring of product factor Xa formation using the Spectrozyme FXa.
Enzfitter (Elsevier Biosoft) programs were employed to calculate the KDapp from the experimentally determined bound VIIa, and free VIIa which was obtained by subtracting bound VIIa from the initial VIIa concentration.
Turning to B1, the “change in KDapp for the TF-VIIa interaction compared to wild-type TF (ratio KD mutant/KD wild-type)” value (“change in KDapp … (ratio KD mutant/KD wild-type)” for short) is reported as 7.4 fold. Same read-out and setting: the same measure for B2: 3.5 fold.

On to B3, for which the “change in KDapp … (ratio KD mutant/KD wild-type)” value is 2.1 fold. For B4, the “change in KDapp … (ratio KD mutant/KD wild-type)” value amounted to 41 fold. Still for that read-out and setting: as for B5, the figure is 18 fold; as for B6, 11 fold.

The same data set, now with this note: triple alanine mutants.
Turning to B7, the “binding of Factor VIIa” value is given as “not substantially bind Factor VIIa”. Turning to B8, the “binding of Factor VIIa” value is given as “not substantially bind Factor VIIa”.

Another data set deals with coagulation in recalcified plasma. In words: One stage clotting (coagulation) assay of specific functional activity of full-length TF mutants in CHO cell lysates. Format: biochemical. To be noted: full-length Ala mutant expressed in CHO cells, cell lysate, coagulant activity normalized to antigen, relative to wild-type TF. The method, then: The full-length TF mutants prepared above were analyzed for function by coagulation assay. […] Coagulation factor deficient plasmas were purchased from George King Bio-medical. The chromogenic substrate, Spectrozyme FXa, was from American Diagnostica Inc. (Greenwich, Conn.).
An alternative approach was to use a polyvalent antibody purified by affinity for capturing TF followed by detection with the TF8-5G9 monoclonal antibody described above.
Initiation of coagulation by wild-type and mutant TF in recalcified plasma was determined after lysis of cell pellets from 2×10^6 cells/ml for each expressed full-length mutant with 15 mM octyl-glucopyranoside in HBS for 15 minutes at 37 C. followed by a 3-fold dilution.
All data represented are based on at least three independent determinations performed in duplicate.
As for B7, the “loss of function (reduction in specific functional activity as % of wild-type activity)” value is 98%. Regarding B9, the “loss of function (reduction in specific functional activity as % of wild-type activity)” value is given as 30-50%. Still for that read-out and setting: the same measure for B10: 30-50%.

Consider B1, for which the “loss of function (reduction in specific functional activity as % of wild-type activity)” value is reported as 30-50%. For B11, the “loss of function (reduction in specific functional activity as % of wild-type activity)” value is reported as 30-50%. On the same count and under the same terms, the same measure for B8: 70%; for B5: 30-50%. On the same count and under the same terms, as for B6, the figure is 35%.

In a further data set the test system is Factor X. The experiment in a line: Functional cleavage of Factor X by the TF-VIIa complex (reaction rate Vmax), D44 mutants. As to conditions: calculated from Vmax rates. Format: biochemical. The method, then: as §1
Additional mhuTF mutants were prepared based on amino acid residue substitutions at amino acid residue position number D44.
For B12, the “loss of function (specific functional activity, Vmax) compared to wild-type” value is 75%.

The data set is the same for the next values; noted with them: cleavage of Factor X.
B12: the “reaction rate (Vmax)” value is listed as ~0.5 per second.
